# Reference: IntAct's records for PubMed 31515488
# B1: Cyclin-dependent kinase 4 inhibitor C (Homo sapiens), P42773 (parent)
# chain: MAEPWGNELASAAARGDLEQLTSLLQNNVNVNAQNGFGRTALQVMKLGNPEIARRLLLRGANPDLKDRTGFAVIHDAARAGFLDTLQTLLEFQADVNIEDNEGNLPLHLAAKEGHLRVVEFLVKHTASNVGHRNHKGDTACDLARLYGRNEVVSLMQANGAGGATNLQ
# B2: Germ cell-less protein-like 1 (Homo sapiens), Q96IK5 (parent)
# chain: MGSLSSRVLRQPRPALAQQAQGARAGGSARRPDTGDDAAGHGFCYCAGSHKRKRSSGSFCYCHPDSETDEDEEEGDEQQRLLNTPRRKKLKSTSKYIYQTLFLNGENSDIKICALGEEWSLHKIYLCQSGYFSSMFSGSWKESSMNIIELEIPDQNIDVEALQVAFGSLYRDDVLIKPSRVVAILAAACLLQLDGLIQQCGETMKETVNVKTVCGYYTSAGTYGLDSVKKKCLEWLLNNLMTHQNVELFKELSINVMKQLIGSSNLFVMQVEMDIYTALKKWMFLQLVPSWNGSLKQLLTETDVWFSKQRKDFEGMAFLETEQGKPFVSVFRHLRLQYIISDLASARIIEQDAVVPSEWLSSVYKQQWFAMLRAEQDSEVGPQEINKEELEGNSMRCGRKLAKDGEYCWRWTGFNFGFDLLVTYTNRYIIFKRNTLNQPCSGSVSLQPRRSIAFRLRLASFDSSGKLICSRTTGYQILTLEKDQEQVVMNLDSRLLIFPLYICCNFLYISPEKKN
# partner: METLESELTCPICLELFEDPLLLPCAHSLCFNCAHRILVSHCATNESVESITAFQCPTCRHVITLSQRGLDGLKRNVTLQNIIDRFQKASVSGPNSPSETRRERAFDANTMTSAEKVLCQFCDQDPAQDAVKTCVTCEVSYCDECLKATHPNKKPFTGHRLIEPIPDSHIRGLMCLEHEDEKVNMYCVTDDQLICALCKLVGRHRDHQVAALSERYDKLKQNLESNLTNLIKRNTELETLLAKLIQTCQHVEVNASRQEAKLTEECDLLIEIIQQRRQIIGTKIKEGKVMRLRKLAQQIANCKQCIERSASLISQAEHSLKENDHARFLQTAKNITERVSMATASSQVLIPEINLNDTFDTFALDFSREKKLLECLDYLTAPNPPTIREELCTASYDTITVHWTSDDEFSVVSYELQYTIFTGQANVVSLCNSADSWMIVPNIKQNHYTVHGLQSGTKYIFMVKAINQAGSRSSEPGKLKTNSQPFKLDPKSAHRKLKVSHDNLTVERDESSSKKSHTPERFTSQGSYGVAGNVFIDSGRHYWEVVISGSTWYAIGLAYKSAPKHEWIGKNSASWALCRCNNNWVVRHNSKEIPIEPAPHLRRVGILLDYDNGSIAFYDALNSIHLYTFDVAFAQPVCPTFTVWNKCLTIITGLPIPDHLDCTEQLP
# Variants of: B1
# Conditions: with cdk6_human CDK6, Q00534
# Chain of cdk6_human CDK6, Q00534 (Q00534 whole entry): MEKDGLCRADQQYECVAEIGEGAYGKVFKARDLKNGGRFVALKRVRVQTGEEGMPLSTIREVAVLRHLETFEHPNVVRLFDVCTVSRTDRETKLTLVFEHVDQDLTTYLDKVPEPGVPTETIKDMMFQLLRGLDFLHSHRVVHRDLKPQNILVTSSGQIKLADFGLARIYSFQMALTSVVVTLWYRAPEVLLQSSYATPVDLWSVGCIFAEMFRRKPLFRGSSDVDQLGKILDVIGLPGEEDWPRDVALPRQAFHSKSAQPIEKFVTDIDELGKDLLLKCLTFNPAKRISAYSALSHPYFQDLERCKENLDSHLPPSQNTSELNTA
row,Variant,effect of a mutation on the interaction
1,R133Q,with no effect
2,T69A,with no effect

# Variants of: B1
# Conditions: with cdk4_human CDK4, P11802
row,Variant,effect of a mutation on the interaction
1,T69A,with no effect

# Variants of: B1
# Conditions: with itf2_human TCF4, P15884
# Chain of itf2_human TCF4, P15884 (P15884 whole entry): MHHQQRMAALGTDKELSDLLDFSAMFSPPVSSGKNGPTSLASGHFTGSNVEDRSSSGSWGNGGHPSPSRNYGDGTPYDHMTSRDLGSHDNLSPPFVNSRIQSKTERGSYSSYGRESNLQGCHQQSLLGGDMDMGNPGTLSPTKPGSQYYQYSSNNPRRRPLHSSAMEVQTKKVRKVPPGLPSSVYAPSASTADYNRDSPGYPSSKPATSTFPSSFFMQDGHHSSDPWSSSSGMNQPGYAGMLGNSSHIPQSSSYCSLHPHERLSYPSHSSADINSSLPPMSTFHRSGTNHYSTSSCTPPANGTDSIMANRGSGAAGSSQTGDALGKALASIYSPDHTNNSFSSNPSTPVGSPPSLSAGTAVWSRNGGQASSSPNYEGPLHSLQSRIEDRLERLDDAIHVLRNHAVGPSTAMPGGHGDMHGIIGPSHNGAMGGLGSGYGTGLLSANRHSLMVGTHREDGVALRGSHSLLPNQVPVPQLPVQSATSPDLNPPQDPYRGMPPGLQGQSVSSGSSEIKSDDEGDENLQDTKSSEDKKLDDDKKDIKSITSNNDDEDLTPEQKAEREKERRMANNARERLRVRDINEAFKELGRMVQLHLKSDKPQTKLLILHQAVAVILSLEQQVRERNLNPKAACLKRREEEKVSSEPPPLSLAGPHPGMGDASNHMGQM
row,Variant,effect of a mutation on the interaction
1,T69A,with no effect

# Variants of: B2
# Conditions: with tri18_human MID1, O15344
row,Variant,effect of a mutation on the interaction
1,R449Q,with no effect
2,I340V,with no effect
3,R457H,with no effect
4,I147V,with no effect
5,K281Q,with no effect
6,Y61S,with no effect
7,K123R,with no effect
